According to publication PMC3879712 (Cell Research, 2013):

Experiments:
[1] = target: ND-HBD*-GFP-Flag (mouse | not stated) (UniProt Q9D2Y4); assay: SiMPull
[2] = target: MLKL in membrane fraction (chemically cross-linked) (UniProt Q9D2Y4); assay: cross-linking
[3] = target: ND-HBD*-3×HA (mouse | not stated) (UniProt Q9D2Y4); assay: non-reducing SDS-PAGE with immunoblot
[4] = target: the molecule itself; assay: non-reducing SDS-PAGE with immunoblot

How did the stoichiometry N [1] turn out when “ND-HBD*-GFP-Flag (from UniProt Q9D2Y4-2 1-190)” was run?
Its stoichiometry N is under 4.

For “MLKL in membrane fraction (chemically cross-linked) (from UniProt Q9D2Y4 1-472) (natural protein)”, which stoichiometry N [2] is on record?
The stoichiometry N was over 4.

With “ND-HBD*-3×HA (from UniProt Q9D2Y4-2 1-190)” as the molecule, how does the stoichiometry N [3] read?
Its stoichiometry N is 4.

B1: endogenous MLKL of L929 cells (natural protein, mouse (endogenous in L929), UniProt Q9D2Y4-2 1-464, looked up)
chain: MDKLGQIIKLGQLIYEQCEKMKYCRKQCQRLGNRVHGLLQPLQRLQAQGKKNLPDDITAALGRFDEVLKEANQQIEKFSKKSHIWKFVSVGNDKILFHEVNEKLRDVWEELLLLLQVYHWNTVSDVSQPASWQQEDRQDAEEDGNENMKVILMQLQISVEEINKTLKQCSLKPTQEIPQDLQIKEIPKEHLGPPWTKLKTSKMSTIYRGEYHRSPVTIKVFNNPQAESVGIVRFTFNDEIKTMKKFDSPNILRIFGICIDQTVKPPEFSIVMEYCELGTLRELLDREKDLTMSVRSLLVLRAARGLYRLHHSETLHRNISSSSFLVAGGYQVKLAGFELSKTQNSISRTAKSTKAERSSSTIYVSPERLKNPFCLYDIKAEIYSFGIVLWEIATGKIPFEGCDSKKIRELVAEDKKQEPVGQDCPELLREIINECRAHEPSQRPSVDGILERLSAVEESTDKKV
Which “stoichiometry N” value [4] does the source give for B1 here?
The value was 4.
